Assay results as given in patent US20020062008A1.
Each block holds one substance with its values, some of them ahead of it.

Experiments:
[1] = target: two domain VCAM-1/Fc with substitution at residue 40 (UniProt P19320); test: adhesion of αdβ2 CHO cells to immobilized mutant VCAM-1/Fc
[2] = target: soluble ICAM-R/IgG1 fusion protein (UniProt P32942); test: ELISA, soluble integrin supernatant on immobilized ICAM-R/Ig, non-blocking antibody detection
[3] = target: LFA-1 leucine zipper fusion protein (soluble CD11a/CD18) (UniProt P20701); test: ELISA as printed: αd/CD18 and immobilized CD11a/CD18
immobilized CD11b/CD18 = immobilized CD11b/CD18 (UniProt P05107); test: ELISA as printed: αd/CD18 and immobilized CD11b/CD18
[4] = target: recombinant VCAM-1 (commercial preparation, R & D Systems), immobilized (UniProt P19320); test: cell-based or functional assay
Sequence of recombinant VCAM-1 (commercial preparation, R & D Systems), immobilized (P19320 25-698 limits assumed): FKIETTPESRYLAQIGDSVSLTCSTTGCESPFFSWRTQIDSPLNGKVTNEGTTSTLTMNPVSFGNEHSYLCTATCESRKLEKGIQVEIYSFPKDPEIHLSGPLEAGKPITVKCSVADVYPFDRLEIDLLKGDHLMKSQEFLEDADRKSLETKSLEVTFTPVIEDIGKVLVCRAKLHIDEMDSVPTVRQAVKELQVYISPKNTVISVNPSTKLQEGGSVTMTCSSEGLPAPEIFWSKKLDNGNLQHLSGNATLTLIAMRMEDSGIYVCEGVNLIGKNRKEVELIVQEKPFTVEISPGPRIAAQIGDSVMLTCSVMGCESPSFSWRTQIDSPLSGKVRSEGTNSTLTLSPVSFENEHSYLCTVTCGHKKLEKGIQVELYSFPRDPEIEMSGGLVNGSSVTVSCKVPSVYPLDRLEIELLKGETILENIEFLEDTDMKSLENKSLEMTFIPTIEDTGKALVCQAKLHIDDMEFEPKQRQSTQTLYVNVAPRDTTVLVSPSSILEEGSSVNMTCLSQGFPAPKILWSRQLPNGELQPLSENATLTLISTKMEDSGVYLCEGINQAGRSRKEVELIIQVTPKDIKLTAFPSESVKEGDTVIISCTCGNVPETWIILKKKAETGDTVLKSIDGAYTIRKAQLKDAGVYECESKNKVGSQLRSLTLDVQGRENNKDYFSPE

Sequence of two domain VCAM-1/Fc with substitution at residue 40 (P19320 25-220): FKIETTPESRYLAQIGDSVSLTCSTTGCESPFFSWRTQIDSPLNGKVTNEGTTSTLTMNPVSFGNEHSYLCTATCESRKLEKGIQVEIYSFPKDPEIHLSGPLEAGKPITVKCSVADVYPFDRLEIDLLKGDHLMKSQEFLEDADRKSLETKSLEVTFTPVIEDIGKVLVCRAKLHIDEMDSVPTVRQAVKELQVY
Sequence of soluble ICAM-R/IgG1 fusion protein (P32942 30-485 limits assumed): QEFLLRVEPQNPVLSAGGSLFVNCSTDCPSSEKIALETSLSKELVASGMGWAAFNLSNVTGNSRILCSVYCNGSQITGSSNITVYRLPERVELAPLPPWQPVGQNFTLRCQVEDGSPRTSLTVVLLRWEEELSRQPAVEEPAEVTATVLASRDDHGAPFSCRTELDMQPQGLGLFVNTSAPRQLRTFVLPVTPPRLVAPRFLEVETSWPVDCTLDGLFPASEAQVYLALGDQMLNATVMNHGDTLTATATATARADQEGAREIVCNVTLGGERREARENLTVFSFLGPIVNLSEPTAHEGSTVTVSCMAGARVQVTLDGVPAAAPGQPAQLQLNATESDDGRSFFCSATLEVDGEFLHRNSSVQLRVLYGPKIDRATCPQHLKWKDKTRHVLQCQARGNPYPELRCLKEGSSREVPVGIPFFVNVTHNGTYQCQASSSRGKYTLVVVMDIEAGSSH

binding relative to wild-type VCAM-1 [1]: 50%
Substance: human αd/CD18 heterodimer expressed on transfected cells (COS, CHO, JY) (from UniProt P05107 23-769) (receptor)

fold greater than control well [2]: 10 fold
fold greater than background binding [3]: 5 fold
fold greater than background binding (immobilized CD11b/CD18): 15 fold
Substance: soluble human αd/CD18 leucine zipper heterodimer (from UniProt P05107 23-700) (receptor)

binding rate of IL-5 cultured eosinophils to immobilized VCAM-1 in the presence of a monoclonal antibody against α4 [4]: 18.1%
Substance: α4 integrins on human eosinophils (from UniProt P13612 34-1032; P05556 21-798) (receptor)
